Results reported in patent US11918610B2, “Methods for diagnosis and treatment of type 1 diabetes” (priority 2018, dated 2024).

Test system: non-obese diabetic mice (NOD/ShiLtJ) colonized with E. coli VT-55
Type: in vivo
Conditions: NOD mice gavaged with E. coli VT-55; regimen of each agent as in Table 3; positive control (no therapy) 16, negative controls 24 and 26
Description: For this study non-obese diabetic mice (NOD/ShiLtJ) 8 weeks old (Jackson Laboratory, Bar Harbor, Me., USA) were housed and bred under specific pathogen-free conditions. Mice were maintained in a temperature controlled (22±2° C.) animal facility with a 12 hour light/dark cycle and were allowed free access to food and acidified drinking water. To increase the efficacy of E. coli transfer, all animals were exposed to antibiotic treatment before the transfer of E. coli. Starting at three weeks of age, recipient mice were treated with ampicillin (1 g/L) in the drinking water for the next 4 weeks. The bacterial strains used: E. coli strain VT-55—a wild-type, amyloid-producing strain. E. coli VT-55 bacteria were administered with oropharyngeal gavage to 8 week old female mice at 10^8 CFU, 2 times a week. Acceleration of T1D development was accessed by measuring blood glucose in a manner consistent with diabetes monitoring, using a FreeStyle Lite meter and test strips (Abbott). Blood glucose was evaluated weekly via a tail vein. T1D development was defined as occurring after two consecutive blood glucose measurements of at least 250 mg/dL.
TTR was expressed in E. coli VT-243. The TTR protein was precipitated from the supernatant of a 48 hour culture of E. coli VT-243 after centrifugation (12,000×g, 20 minutes 4° C.) of the lysed cells in the gradient 40-90% ammonium sulfate fraction (1.8-3.6 M). The precipitate that contained TTR was dialyzed overnight against 10 mM sodium phosphate buffer, pH 7.5, 100 mM KCl, 1 mM EDTA. The same volume of 200 mM sodium acetate buffer (pH 4.4, 100 mM KCl, 1 mM EDTA) was added to achieve a final pH of 4.5, and the mixture was then incubated for 18 hours at 37° C. Following centrifugation (45 min, 30,000×g, 4° C.), the supernatant was gel filtrated (Superdex 75) to elute phosphate buffer.
To develop nanoparticles with siRNA, we used cholesterol, distearoyl-sn-glycerol-3-phosphocholine (DSPC) and PEG2000-DMG (all Sigma). Nanoparticles were prepared by dissolving the 306013 lipidoid, cholesterol, DSPC, and PEG2000-DMG with final molar ratio of 50:38.5:10:1.5 in a 90% ethanol enriched with 10% 10 nM sodium citrate. Particles were formed following vortexing of equal volumes of siRNA solution with the lipid solution and subsequent dilution in PBS. Mice were orally gavaged with nanoparticles loaded with siRNA at a dose of 5 mg/kg.
The EcVac vaccine consisted of conjugates containing the 0-antigens of serotypes 06 of E. coli VT-55. […] The suspension for iv administration was made in TBS, (pH 7.4; 25 mmol Tris, 137 mmol NaCl, 2.8 mmol KCl).
Balb/c mice were immunized (10 μg) intraperitoneally and boosted (1 μg) subcutaneously with the E. coli amyloid isolated as previously described. Splenocytes were removed under sterile conditions, washed and hybridized to murine plasmacytoma parent cell line SP2/OAg14 using 40% polyethylene glycol and a spleen cell to plasmacytoma cell ratio of 5:1. Cells were plated in 96-well microtiter (Sarstedt) plates at 100,000 cells/per well with DMEM supplemented with 10% fetal bovine serum. Following 48h, cells were supplemented with hypoxanthine (100 PM) containing medium. After three washes with PBS-1% BSA, the presence of specific antibody binding was detected by ELISA. Serotype specific wells were cloned. Pristine-primed BALB/c mice were IP injected with 1×10^7 hybridoma cells. Ascites fluid was collected 14 days later, centrifuged (5000 g, 20 min, Eppendorf) and stored at −80° C. before use.

B1: T7 Endonuclease I: T7 Endonuclease I (New England Biolabs) (protein, UniProt P00641 1-149, looked up)
Endonuclease I: MAGYGAKGIRKVGAFRSGLEDKVSKQLESKGIKFEYEEWKVPYVIPASNHTYTPDFLLPNGIFVETKGLWESDDRKKHLLIREQHPELDIRIVFSSSRTKLYKGSPTSYGEFCEKHGIKFADKLIPAEWIKEPKKEVPFDRLKRKGGKK
Median T1D incidence 50% (weeks): 22 weeks
